Measured values as given in patent US20060165677A1, “DELETION FORMS OF IgE-DEPENDENT HISTAMINE RELEASING FACTOR HAVING HISTAMINE RELEASING ACTIVITY, HRF-BINDING PEPTIDES AND THE USES THEREOF” (EWHA UNIVERSITY-INDUSTRY COLLABORATION FOUNDATION, priority 2005, published 2006).
“Also recorded” adds a separate entry of the source.

Experiments:
[1] = test system: phage φ-HBP-2 expressing HRF-binding peptide; experiment: Phage display peptide clone-binding capacity of immobilized HRF forms (ELISA); conditions: HRF form immobilized on plate, ELISA at 405 nm
Protocol: Each deletion form of HRF was immobilized on a plastic well, to which phage expressing HRF-binding peptide was added in order to investigate binding capacity of each HRF.
Particularly, each deletion form of HRF dissolved in coating buffer (0.1 M NaHCO3, pH 8.6) at the concentration of 20 μg/Ml was placed on polystyrene microtiter plate by 50 μl, followed by coating at 4° C. for overnight and non-specific binding was blocked with BSA. The plate was washed with 0.1% tween/TBS (TBST) 6 times, to which 30 μl of phage solution diluted in 30 μl of 6% BSA/PBS was added. The solution stood at room temperature for 2 hours. After washing with PBST five times, 100 μl of […] anti-M13 antibody (Pharmacia), diluted in 3% BSA/PBS at the ratio of 1:5000, was added to the solution, followed by standing at room temperature for one hour. After washing 6 times with PBST and once more with PBS, 100 μl of peroxidase substrate solution was added and color development was measured at 405 nm by using ELISA reader (Bio-Rad).

deletion forms of HRF = experiment: Inhibition by HRF-binding peptide of HRF-induced histamine secretion in RBL-2H3 cells; type: cell-based; conditions: RBL-2H3 cells sensitized with rat IgE
Protocol: RBL-2H3 cells (ATCC) were cultured in 24-well plate at the concentration of 5×10^4 cells/well, followed by sensitization with rat IgE antibody (0.2 μg/Ml, Serotec) for 60 minutes. The cells were treated with […] of recombinant HRF protein in 5% FBS/MEM medium (positive control). The cells were treated with heptamer peptide (Korean Registered Patent No. 457350B1) with different concentrations (0.0156-15.6 mM). 15 minutes later, rat anti-IgE antibody was added thereto. 4 hours later, supernatant was obtained and the isolated histamine was measured by using histamine analyzer (Astoria Analyzer, Series 300 system).

Del-N35HRF = target: T1, Del-N35HRF (Rattus norvegicus, UniProt P63029); experiment: Inhibition by HRF-binding peptides of Del-N35HRF-induced IL-8 secretion in BEAS-2B cells; type: cell-based; conditions: Del-N35HRF 61 nM, peptide 6.1-610 nM, 24 hours
T1 construct: 6xHis (pRSET-A leader) (N); made in house; host or cells: E. coli BL21(DE3) or BL21(DE3)pLysS
T1 sequence (P63029 35-172): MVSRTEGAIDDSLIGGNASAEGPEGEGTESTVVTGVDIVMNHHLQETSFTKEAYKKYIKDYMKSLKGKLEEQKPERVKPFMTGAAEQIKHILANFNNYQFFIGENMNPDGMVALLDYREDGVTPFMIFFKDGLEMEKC
Protocol: The interactions between HRF-binding peptides and deletion forms of HRF were investigated in BEAS-2B cells. Del-N35HRF (61 nM) was treated to BEAS-2B cells by the same manner as described in Example 3. At that time, HRF-binding peptide and its mutant in which alanine was replaced (Korean Registered Patent No. 457350B1), and HRF-binding peptides in which amino acid 1 or 7 was deleted were added to Del-N35HRF with different concentrations (6.1-610 nM), followed by standing at room temperature for 10 minutes, which would be added to the cell lines. 24 hours later, supernatant was obtained and the released IL-8 was quantified by PIERCE.

BEAS-2B cells = experiment: IL-8 releasing activity in BEAS-2B cells according to HRF forms; type: cell-based; conditions: for IL-8 releasing activity at low level of HRF: HRF 1 μg/Ml, lower than minimum level for IL-8 secretion by wild type HRF; for IL-8 releasing activity: compared with wild type HRF
Protocol: The activities of different deletion forms of HRF were compared by investigating IL-8 secretions in BEAS-2B cells (ATCC). BEAS-2B cells were cultured in 48-well plate until they were 70% grown up. Then, the cells were washed with 1% penicillin-streptomycin/BEBM (Clonetics) twice, to which each recombinant protein (RrHRF or each deletion form of HRF) separated in Example <1-3> was added by 1 μg/Ml or 10 μg/Ml. 48 or 24 hours later, supernatant was obtained and IL-8 therein was measured by PIERCE (FIG. 5).

[2] = test system: IgE sensitized human basophils; experiment: Histamine releasing activity in human basophils according to HRF forms; type: cell-based; conditions: compared with wild type HRF
Protocol: The activities of different deletion forms of HRF were compared by investigating histamine secretions in human basophils. 40 Ml of venous blood was taken from a donor with atopic dermatitis. To the blood sample was added 10 mM of EDTA, an anticoagulant, and 10 Ml of dextran containing 6% saline. The solution stood at room temperature for 90 minutes and then supernatant containing leukocytes was separated, followed by centrifugation at 150×g for 8 minutes. The recovered leukocytes were washed twice with PAG-EDTA (4 mM EDTA, 25 mM PIPES, 110 mM NaCl, 5 mM KCl, 0.003% HSA, 0.1% D-glucose), which were left in cold lactate buffer (13.4 mM lactic acid, 140 mM NaCl, 5 mM KCl, pH 3.9) for 3-5 minutes to eliminate IgE adhered on the surface of cells. The cells were washed with 30 Ml of PAG-EDTA twice and resuspended in PAG-EDTA, followed by IgE-sensitization (1 μg/Ml, Serotec) for 2 hours. Then, the cells were washed with IMDM medium (Gibco BRL) supplemented with 5% FBS twice, to which each recombinant protein (rHRF or each deletion form of HRF) prepared in Example <1-3> was added by 20 μg/Ml. 15 minutes later, human anti-IgE antibody was added thereto. Four hours later, supernatant was obtained. The isolated histamine was measured by histamine analyzer (Astoria Analyzer, Series 300 system) (FIG. 6).

Del-N84C108HRF: deletion form of rat HRF, amino acid 84-108 fragment (TKEAYKKYIKDYMKSLKGKLEEQKP; listed as Rattus norvegicus)
affinity to phage expressing HRF-binding heptamer peptide (HBP2) [1]: high
affinity to phage expressing HRF-binding heptamer peptide (HBP2) ([1]; listed as SEQ ID NO:8): excellent

HBP-2: HRF-binding heptamer peptide having the sequence WYVYPSM (Korean Registered Patent No. 457350B1)
inhibition of histamine releasing by deletion forms of HRF (deletion forms of HRF): inhibits
inhibition of histamine releasing by deletion forms of HRF (deletion forms of HRF; listed as HRF-binding peptide): dose-dependently
inhibition of IL-8 secretion by deletion forms of HRF (Del-N35HRF): inhibits
inhibition of IL-8 secretion by deletion forms of HRF (Del-N35HRF; listed as HRF-binding peptide): dose-dependently

B1: Del-N35HRF: deletion form of rat HRF, amino acid 35-172 fragment; 34 N-terminal residues deleted (protein, listed as Rattus norvegicus)
chain: MVSRTEGAIDDSLIGGNASAEGPEGEGTESTVVTGVDIVMNHHLQETSFTKEAYKKYIKDYMKSLKGKLEEQKPERVKPFMTGAAEQIKHILANFNNYQFFIGENMNPDGMVALLDYREDGVTPFMIFFKDGLEMEKC
IL-8 releasing activity at low level of HRF (BEAS-2B cells): detected
IL-8 releasing activity (BEAS-2B cells): greater
IL-8 releasing activity (BEAS-2B cells; listed as SEQ ID NO:3): excellent; also recorded: increased
histamine releasing activity [2]: more effectively than wild type HRF; also recorded: increased
histamine releasing activity ([2]; listed as SEQ ID NO:3): excellent; also recorded: similarly induced histamine releasing
affinity to phage expressing HRF-binding heptamer peptide (HBP2) [1]: very strong

B2: Del-N11HRF: deletion form of rat HRF, amino acid 11-172 fragment; 10 N-terminal residues deleted (protein, listed as Rattus norvegicus)
chain: DELFSDIYKIREIADGLCLEVEGKMVSRTEGAIDDSLIGGNASAEGPEGEGTESTVVTGVDIVMNHHLQETSFTKEAYKKYIKDYMKSLKGKLEEQKPERVKPFMTGAAEQIKHILANFNNYQFFIGENMNPDGMVALLDYREDGVTPFMIFFKDGLEMEKC
IL-8 releasing activity at low level of HRF (BEAS-2B cells): detected
IL-8 releasing activity (BEAS-2B cells): greater
IL-8 releasing activity (BEAS-2B cells; listed as SEQ ID NO:2): increased
histamine releasing activity [2]: more effectively than wild type HRF; also recorded: increased
histamine releasing activity ([2]; listed as SEQ ID NO:2): similarly induced histamine releasing
affinity to phage expressing HRF-binding heptamer peptide (HBP2) [1]: very strong

B3: RrHRF: recombinant total-length rat HRF, amino acids 1-172 (Accession number U20525) (protein, listed as Rattus norvegicus)
chain: MIIYRDLISHDELFSDIYKIREIADGLCLEVEGKMVSRTEGAIDDSLIGGNASAEGPEGEGTESTVVTGVDIVMNHHLQETSFTKEAYKKYIKDYMKSLKGKLEEQKPERVKPFMTGAAEQIKHILANFNNYQFFIGENMNPDGMVALLDYREDGVTPFMIFFKDGLEMEKC
affinity to phage expressing HRF-binding heptamer peptide (HBP2) [1]: very weak
affinity to phage expressing HRF-binding heptamer peptide (HBP2) ([1]; listed as wild type HRF): weak

B4: Del-N39C110HRF: deletion form of rat HRF, amino acid 39-110 fragment (protein, listed as Rattus norvegicus)
chain: TEGAIDDSLIGGNASAEGPEGEGTESTVVTGVDIVMNHHLQETSFTKEAYKKYIKDYMKSLKGKLEEQKPER
affinity to phage expressing HRF-binding heptamer peptide (HBP2) ([1]; listed as SEQ ID NO:5): excellent

B5: Del-C112HRF: deletion form of rat HRF, amino acid 1-112 fragment (protein, listed as Rattus norvegicus)
chain: MIIYRDLISHDELFSDIYKIREIADGLCLEVEGKMVSRTEGAIDDSLIGGNASAEGPEGEGTESTVVTGVDIVMNHHLQETSFTKEAYKKYIKDYMKSLKGKLEEQKPERVK
histamine releasing activity [2]: as much as that of wild type HRF
affinity to phage expressing HRF-binding heptamer peptide (HBP2) [1]: very weak and weak
